According to patent US20200317802A1:

What was measured:
[1] = target: activated human MMP-1 (human) (UniProt P03956)
[2] = target: activated human MMP-14 (human) (UniProt P50281)

Sequence of activated human MMP-1 (human) (P03956 100-469 limits assumed): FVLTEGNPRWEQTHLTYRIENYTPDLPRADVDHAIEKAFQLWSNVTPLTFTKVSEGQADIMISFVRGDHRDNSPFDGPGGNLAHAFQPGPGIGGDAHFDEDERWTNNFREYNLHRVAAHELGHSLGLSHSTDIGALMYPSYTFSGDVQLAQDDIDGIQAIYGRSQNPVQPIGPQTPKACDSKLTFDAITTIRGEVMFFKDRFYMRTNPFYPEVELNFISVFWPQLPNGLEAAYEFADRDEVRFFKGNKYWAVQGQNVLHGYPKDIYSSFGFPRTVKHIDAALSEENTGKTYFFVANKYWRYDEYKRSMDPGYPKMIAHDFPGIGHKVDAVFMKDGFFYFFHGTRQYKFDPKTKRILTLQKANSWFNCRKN

TIMP2 (from UniProt P16035 27-220)
IC50 (read off the curve) (human MMP-1 activity, FRET peptide substrate) [1]: 0.9 nM
IC50 (read off the curve) (human MMP-14 activity, FRET peptide substrate) [2]: 6 nM
